The values below come from patent USRE39192E1, “Supplemented and unsupplemented tissue sealants, methods of their production and use” (American National Red Cross, priority 1990, dated 2006).

The target in one experiment is T1, thrombin (Homo sapiens, UniProt P00734).
T1 construct: converts prothrombin into thrombin
Briefly: Stability of HBGF-1β to thrombin in the presence of heparin (Western blot). The format is biochemical. The note with it: heparin as low as 5U/ml; thrombin 250 U/ml; 37° C. On the procedure:
FIGS. 1A-1F show Western blots of gels on which samples containing HBGF-1β had been incubated with 250 U/ml thrombin in the presence of increasing concentrations of heparin. Solutions containing HBGF-1β (10 μg/ml), thrombin ([…]), and increasing concentrations of heparin (0, 0.5, 5, 10, 20, and 50 units/ml) were incubated at 37° C. for 72 hours. Aliquots were periodically removed from each of the incubating mixtures and were loaded onto 8% SDS polyacrylamide gels that were prepared and run as described by Laemmli (Nature 227:680 (1970)). The gel was then electroblotted onto nitrocellulose and the band corresponding to HBGF-1β was identified using an affinity-purified polyclonal rabbit antiserum to HBGF-1β.
The concentrations of heparin in the incubating mixtures were: panel A) 0 units/ml; panel B) 0.5 U/ml; Panel C) 5 U/ml; panel D) 10 U/ml; panel E) 20 U/ml; and panel F) 50 U/ml. […]
Similarly, the ability of a selected inhibitor to protect a growth factor from degradation by TS components may be assessed by any method known to those of skill in the art. […]
It was necessary to add an ingredient to the FG that would inhibit or prevent the digestion of HBGF-1β by thrombin (Lobb, Biochem. 27:2572-2578 (1988)), which is a component of FG. […] The stability of HBGF-1 in the presence of increasing concentrations of heparin was assessed. […]
For orientation: Immunoblotting shows a protein as a band on a membrane.

The next experiment deals with NIH 3T3 cells. The experiment can be described thus: 3H-thymidine incorporation assay with NIH 3T3 cells. In kind it is cell-based. The note with it: after incubation with 250 U/ml thrombin and 5 U/ml heparin for 0, 24 or 72 hours. As to the method: FIG. 2. Graph ShowingReissue the incorporation of ^3H-thymidine as a function of relative HBGF-1β concentration. Samples of the HBGF-1β were incubated, as described in FIG. 1 and Example 2, in the presence of 250 U/ml thrombin and 5 U/ml heparin for 0, 24 or 72 hours. Dilutions of these samples were then added to NHI 3T3 cells, which were plated as described in Example 3. CPM is plotted v. HBGF-1 concentration.
The biological activity of HBGF-1 in the incubation mixture that contained 5 U/ml of heparin, and was described in Example 2, was measuring using an ^3H-thymidine incorporation assay with NIH 3T3 cells.
NIH 3T3 cells were introduced into 96 well plates and were incubated at 37° C. under starvation conditions in Dulbecco's Modified Medium (DMEM; GIBCO, Grand Island, N.Y.) with 0.5% […] bovine serum (BCS; GIBCO, Grand Island, N.Y.) until the cells reached 30 to 50% confluence. Two days later, varying dilutions of HBGF-1 from the samples prepared in Example 2 were added to each well without changing the medium. Diluent (incubation buffer) was added in place of growth factor for the negative controls and DMEM with 10% BCS, which contains growth factors needed for growth, was added in place of the HBGF-1 sample for the positive controls. […]
A general note: Dividing cells build labelled thymidine or BrdU into new DNA.

For the substance “HBGF-1: heparin binding growth factor-1, also known as ECGF and FGF-1; recombinant HBGF-1β expressed in E. coli”, in the experiment with thrombin, the “protection of HBGF-1β from digestion by thrombin” value was “protected from digestion by thrombin”. Besides, in the experiment with NIH 3T3 cells, the “biological activity (3H-thymidine incorporation)” value is “retained its biological activity”.
